In patent publication US20240270860A1:

Experiments:
Test in all cases: peptide-array ELISA (CYS.S) [Continued]
[1] = target: T1, …2RPGWY2
T1 sequence (peptide, 2 = Cys(ACM)): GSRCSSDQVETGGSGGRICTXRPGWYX

[2] = target: T2, KQEGCRL2…
T2 sequence (peptide, 2 = Cys(ACM)): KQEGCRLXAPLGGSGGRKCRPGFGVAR

[3] = target: T3, 2LS2…2RPGWY2AL
T3 sequence (peptide, 2 = Cys(ACM)): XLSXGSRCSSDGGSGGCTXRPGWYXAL

[4] = target: T4, VPE2LS2…2RPGWY
T4 sequence (peptide, 2 = Cys(ACM)): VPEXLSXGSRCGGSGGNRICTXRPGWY

[5] = target: T5, 2…2RPGWY2
T5 sequence (peptide, 2 = Cys(ACM)): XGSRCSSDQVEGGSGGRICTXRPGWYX

[6] = target: T6, KQEGCRL2…; remark: listed apart in the source
T6 sequence (peptide, 2 = Cys(ACM)): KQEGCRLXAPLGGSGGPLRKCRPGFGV

[7] = target: T7, …2RPGWY2AL
T7 sequence (peptide, 2 = Cys(ACM)): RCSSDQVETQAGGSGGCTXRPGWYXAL

[8] = target: T8, WY2…2…
T8 sequence (peptide, 2 = Cys(ACM)): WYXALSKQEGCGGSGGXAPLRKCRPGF

[9] = target: T9, …2RPGWY2; remark: listed apart in the source
T9 sequence (peptide, 2 = Cys(ACM)): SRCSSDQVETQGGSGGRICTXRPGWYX

[10] = target: T10, E2LS2…2RPGWY2
T10 sequence (peptide, 2 = Cys(ACM)): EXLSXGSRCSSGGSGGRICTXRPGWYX

[11] = target: T11, LS2…2RPGWY
T11 sequence (peptide, 2 = Cys(ACM)): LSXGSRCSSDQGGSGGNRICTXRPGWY

[12] = target: T12, 2…2…
T12 sequence (peptide, 2 = Cys(ACM)): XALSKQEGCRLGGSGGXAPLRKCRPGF

[13] = target: T13, PE2LS2…2RPGWY2
T13 sequence (peptide, 2 = Cys(ACM)): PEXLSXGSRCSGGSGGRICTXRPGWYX

[14] = target: T14, Y2…
T14 sequence (peptide, 2 = Cys(ACM)): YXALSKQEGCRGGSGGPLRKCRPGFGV

[15] = target: T15, …2…
T15 sequence (peptide, 2 = Cys(ACM)): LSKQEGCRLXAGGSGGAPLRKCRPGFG

[16] = target: T16, QEGCRL2…2…
T16 sequence (peptide, 2 = Cys(ACM)): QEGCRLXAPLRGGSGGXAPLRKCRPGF

[17] = target: T17, …2RPGWY
T17 sequence (peptide, 2 = Cys(ACM)): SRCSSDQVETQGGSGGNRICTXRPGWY

[18] = target: T18, …2RPGWY2AL; remark: listed apart in the source
T18 sequence (peptide, 2 = Cys(ACM)): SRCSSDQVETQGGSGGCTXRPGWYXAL

[19] = target: T19, QEGCRL2…
T19 sequence (peptide, 2 = Cys(ACM)): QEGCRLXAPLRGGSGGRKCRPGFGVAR

[20] = target: T20, E2LS2…2RPGWY2A
T20 sequence (peptide, 2 = Cys(ACM)): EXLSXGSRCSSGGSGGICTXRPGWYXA

[21] = target: T21, …2…2RPGWY
T21 sequence (peptide, 2 = Cys(ACM)): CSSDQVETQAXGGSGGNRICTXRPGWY

[22] = target: T22, E2LS2…2RPGWY2AL
T22 sequence (peptide, 2 = Cys(ACM)): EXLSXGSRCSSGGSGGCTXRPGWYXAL

[23] = target: T23, 2TREQNRI2…
T23 sequence (peptide, 2 = Cys(ACM)): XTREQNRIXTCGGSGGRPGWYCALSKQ

[24] = target: T24, NRI2…
T24 sequence (peptide, 2 = Cys(ACM)): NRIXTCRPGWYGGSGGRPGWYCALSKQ

[25] = target: T25, …2RPGWY2A
T25 sequence (peptide, 2 = Cys(ACM)): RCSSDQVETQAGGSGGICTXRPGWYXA

[26] = target: T26, REQNRI2…
T26 sequence (peptide, 2 = Cys(ACM)): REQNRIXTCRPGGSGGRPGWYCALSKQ

[27] = target: T27, …2GGSGG2…
T27 sequence (peptide, 2 = Cys(ACM)): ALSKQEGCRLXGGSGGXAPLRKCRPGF

[28] = target: T28, QEGCRL2…; remark: listed apart in the source
T28 sequence (peptide, 2 = Cys(ACM)): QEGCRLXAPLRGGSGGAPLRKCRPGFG

[29] = target: T29, …2AGGSGG2…
T29 sequence (peptide, 2 = Cys(ACM)): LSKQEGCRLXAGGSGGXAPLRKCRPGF

[30] = target: T30, EGCRL2…
T30 sequence (peptide, 2 = Cys(ACM)): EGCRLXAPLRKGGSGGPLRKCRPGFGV

[31] = target: T31, KQEGCRL2APLGGSGG2…
T31 sequence (peptide, 2 = Cys(ACM)): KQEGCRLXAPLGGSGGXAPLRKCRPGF

[32] = target: T32, …2RPGWY2AL; remark: listed apart in the source
T32 sequence (peptide, 2 = Cys(ACM)): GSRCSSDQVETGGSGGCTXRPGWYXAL

[33] = target: T33, QNRI2…
T33 sequence (peptide, 2 = Cys(ACM)): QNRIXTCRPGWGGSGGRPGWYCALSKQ

[34] = target: T34, SKQEGCRL2…
T34 sequence (peptide, 2 = Cys(ACM)): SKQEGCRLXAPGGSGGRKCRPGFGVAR

[35] = target: T35, Y2…; remark: listed apart in the source
T35 sequence (peptide, 2 = Cys(ACM)): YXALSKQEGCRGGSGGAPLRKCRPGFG

[36] = target: T36, …2GGSGGICT2RPGWY2A
T36 sequence (peptide, 2 = Cys(ACM)): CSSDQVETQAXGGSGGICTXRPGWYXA

[37] = target: T37, VPE2LS2…2RPGWY2A
T37 sequence (peptide, 2 = Cys(ACM)): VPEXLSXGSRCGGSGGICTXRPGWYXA

[38] = target: T38, VPE2LS2…2RPGWY2
T38 sequence (peptide, 2 = Cys(ACM)): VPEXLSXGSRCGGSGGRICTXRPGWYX

[39] = target: T39, Y2…; remark: listed apart in the source
T39 sequence (peptide, 2 = Cys(ACM)): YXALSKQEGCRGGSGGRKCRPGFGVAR

[40] = target: T40, …2RPGWY2A; remark: listed apart in the source
T40 sequence (peptide, 2 = Cys(ACM)): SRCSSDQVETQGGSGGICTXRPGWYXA

B1: antagonistic TNFR2 antibody TNFRAB1 (antibody, V domains shown)
VH: EVQLQESGGGLVKPGGSLKLSCAASGFTFSSYVMSWVRQTPEKRLEWVATISSGGSYTYYPDSVKGRFTISRDNAKNTLYLQMSSLRSEDTAMYYCARQRVDGYSSYWYFDVWGAGTAVTVSS
VL: DIVLTQSPAIMSASPGEKVTITCSASSSVYYMYWFQQKPGTSPKLWIYSTSNLASGVPVRFSGSGSGTSYSLTISRMEAEDAATYYCQQRRNYPYTFGGGTKLEIKR
A Raw luminescence data [1] of 594, a Raw luminescence data [2] of 430 and a Raw luminescence data [3] of 603 were found for B1 in this work. The Raw luminescence data [4] was 853, the Raw luminescence data [5] was 614 and the Raw luminescence data [6] was 457. It also gave a Raw luminescence data [7] of 319, a Raw luminescence data [8] of 327 and a Raw luminescence data [9] of 568. It also gave a Raw luminescence data [10] of 478, a Raw luminescence data [11] of 822 and a Raw luminescence data [12] of 439. For the same binder, the Raw luminescence data [13] was 585, the Raw luminescence data [14] was 381 and the Raw luminescence data [15] was 253. The Raw luminescence data [16] was 570, the Raw luminescence data [17] was 482 and the Raw luminescence data [18] was 391. For the same binder, the Raw luminescence data [19] was 426, the Raw luminescence data [20] was 454 and the Raw luminescence data [21] was 487. The Raw luminescence data [22] was 605, the Raw luminescence data [23] was 101 and the Raw luminescence data [24] was 426. The Raw luminescence data [25] was 372, the Raw luminescence data [26] was 228 and the Raw luminescence data [27] was 560. For the same binder, the Raw luminescence data [28] was 340, the Raw luminescence data [29] was 529 and the Raw luminescence data [30] was 450. For the same binder, the Raw luminescence data [31] was 528, the Raw luminescence data [32] was 464 and the Raw luminescence data [33] was 240. It also gave a Raw luminescence data [34] of 430, a Raw luminescence data [35] of 553 and a Raw luminescence data [36] of 454. For the same binder, the Raw luminescence data [37] was 540, the Raw luminescence data [38] was 478 and the Raw luminescence data [39] was 463. The Raw luminescence data [40] was 388.
